Assay: yeast display, Sf9 membrane polyspecificity reagent, FACS + sequencing; frameworks hold sequencing errors
Summary of the method: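 Galactose-induced (36–48 hours) yeast carrying a synthetic nanobody display library were exposed to 10% biotinylated, detergent-solubilized Sf9 membrane reagent at 4 °C for 1 hour. FACS followed streptavidin microbead enrichment, using low and high (top ~1%) gates for expression (anti-HA) and reagent binding (streptavidin). Colony PCR, MiSeq 2 × 250 sequencing and CDR-length filtering followed. Labels for polyreactivity reflect the gate of origin.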

Sequence | polyreactivity (PSR sort gate)
QVQLVESGGCLFQAGGSLRLICAASGSISGLYAIGWYRQAPGKERELVARIRWRGDSTYYADSVKGRFTISRDNAKNTVYLQMNSLKPEDTAVYYCAASAYSGKVNKYNYWGQGTQVTVSS | high polyreactivity
QVQLVESGGGLVQAGGILRLSCAASGRTFSVNAMGWYRQAPGKERELVAAITRRGGSTYYADSVKGRFTISRDYAKNTVYLQMKSLKPEDTAVYYCAAEFVTYYSSSKRAYYYWGQGTQVTVSS | high polyreactivity
QVQLVESGGGLVQAGGSLRLSCAASGSTFVRNAMGWYRQAPGKERELVAAISWSGGRTYYADSVKGRFTISRDNAKNTVYLQMNSLKPEDTAVYYCAARGYAGVDYDYWGQGTQVTVSS | high polyreactivity
QVQLVESGGGLVQAGGSLRLSCAASGRISVTYAMGWYRQAPGKERELVAAINTSGGTTYYADSVKGRFTISRDNAKNTVYLQMNSLKPEDTAVYYCNAVFYGGVGDNDYWGQGTQVTVSS | high polyreactivity
QVQLVESGGGLVQAGGSLRLSCAASGSTLFSYAMGWYRQAPGKEREFVAAISRRGGSTYYEDSVKGRFTISRDYAKNTVYLQMNSLKPEETAVYYCAARDSSYNWYGYWGQGTQVTVSW | high polyreactivity
QVQLVESGGGLVQAGGSLRLSCAASGSTFFVYDMGWYRQAPGKEREMVAAISISDGGTYYADSVKWRFTISRDNAKNYVYLQMNSLKPEDTAVYYCADDYSERYFRGYVYLGQGTQVTVSS | low polyreactivity
QVQLVESGGGLVQAGGSLPLSCAASGSIFDLYTMGWYRQAPGKEREMVASISSSGGSTYYADSVKGRFTISRDNAKNTVYLQMNSLKPEDTAVYYCAAVASYHAYQYYYWGQGTQVTVSS | high polyreactivity
QVQLVESCGGLVQAGASLRLSCAASGSTFYDNVMGWYRQAPWKERELVAAITWRGGSTYADSVKGRFTISRDNAKNTVYLQMNSLKPEDTAVYYCNADDDYQQYLGDYWGQGTQVTVSS | low polyreactivity
QVQLVESGGGLVQAGGSLRLSCAASGIISIFNVMGWYRQAPGKERELVASITGRGGSTFYADSVKGRFTISRDNAKNTVYLQMNRLKPEDTAVYYCATDTGYTYPVTGLYDYWGQGTQVTVSS | low polyreactivity
QVQLVESGGGLVQAGGSLRLSSAASGSIFPANALGWYRQAPGKERELVAASTANGGSTYYADSVKGRFTISRDNAKNTVYLQMNSLKPEDTAVYYCNAYFVSGHAGGYDYWGQGTQETVSS | high polyreactivity
QVQLVESGGGLVQAGGSLRLSCAASGSIFERYDMGWYRQAPGKERELVAAITSAGITYYADSVKGRFTISRDNAKNTVYLQMNSLKPEDTAVYYCAASYYYGYDYWGQGTQVTVSS | low polyreactivity
QVQLVESGGGLVQAGGSLRISCAASGINFVTYAMGWYRKAPGKEREFVASINWITGNTYYADSVKGRFTISRDNAKNTVYLQMNSLKPEDTAVYYCATVDWSLYLGTPPSYYWGQGTQVTVSS | low polyreactivity
QVQLVESGGGLVQAGGSLRLSCAASGRIFSFYTMGWSRQAPGKERELVAAISNVGGTDYADSVKGRFTISRDNAKNTVYLQMNSLKPEDTAVYYCHAAWGRYFRYRWYTNGLDYWGQGTQVTVSS | low polyreactivity
QVQLVESGGGLVQAGGSLRLSCAASGFTFYTNAMGWYRQAPGKERELVAGINSGSSTYYADSVKGRFTISRDNAKNNVYLQMNSLKPEDTAVYYCAARRSRYIHRGFGYWGQGTQVTVSS | high polyreactivity
QVQLVESGGGLVQAGGSLRLSCPASGFILYPYAMGWYRQAPGKERELVAAITSRGGRTYYADSVKGRFTISRDNAKNTVYLQMNSLKPEDTAVYYCAAKRTSYYAPLKYYSWGQGTQVTVSS | high polyreactivity
QVQLVESGGGLVQAGGSLRLSCAASGSTFLYYAMGWSRQAPGKERELVAVISWSGVSTYYADSVKGRFTISRDNAKNSVYLQMNSLKPEDTAVYYCYTGYHYIRSYGYWGQGTQVTVSS | low polyreactivity
QVQLVESGGGLVQAGGSLRLSCAASGRIYLYAMGWYRQAPRKERELVASISYSGGSTYYADSVKGRFTISRDNAKNTVYLQMNSLKPEDTAVYYCATRRAGSCPPYGYWGQGSQVTVSS | high polyreactivity
QVQLVESGGGLLQAGGSLRLSCAASGFTIYRYAMGWYRQATGKERELVAAITGGGGSTYYADSVKGRFTISRDNAKNTVYLQMNSLKPEDTAVYYCAVDVYHIGQYRWSYGYWGQGTQVTVSS | low polyreactivity
QVQLVESGGCLDQAGGSLRLSCAASGRIFDHYAMGWYRQAPGKEMELVAAITRSGGITYYADSVKGRFTISRDNAKNTVYLQMNSLKPEDTAVYYCAALSYRYTDKFDYWGQGTQVTVSS | low polyreactivity
QVQLVESGGGLVQAGGSLRLSCAASGSTFLNYAMGWSRQAPGKERELVAAISGSTTRTYYADSVKGRFTISRDNAKNPVYLQMNSLKPEDTAVYYCAARVRYPPYRSSDGQRAGYWGQGTQVTVSS | high polyreactivity
QVQLVESGGGLVQEGGSLRLSCAASGRIFGTNAMGWYRQAPGKERELVAAISRSGGSTYYADSVKGRFTISRDNAKNTVYLQMNSLKPEDTAVYYCATDGRHTYYYWGQGTQVTVSS | high polyreactivity

Sequence | polyreactivity (PSR sort gate)
QVQLVESGGCLVQAGGSLRLSCAASGIIFSGYAMGWYRQAPGKERELVAAISSRGGGPYYADSVKGRFTISRDNAKKTVYLQMNSLKPEDTAVYYCNRVAFTYNYWGQGTQVTVTS | high polyreactivity
QVQLVESGGGLVQAGGSLRLSCAASGSTFIANDMGWYRQAPGKERELVAAISWSGGSTYADSVKGRFTISRDNAKNTVYLQMNSLKPEDTAVYYCAADWQVVWDYNYWGQGTQVTVSS | low polyreactivity
QVQLVESGGGLVQAGGSLRLSCAASGRIFVGNAMVCYKQAPGKERELVAGITSRGGSTYYADSVKGRFTISRDNAKNTVYLQMNSLKQEDTAVYYCASYYRYPSWKFDYWGQGTQVTVSS | high polyreactivity
QVQLVESGGGIVQAGGSLRLSCAASGSTFYKYAMGWYRQAPGKERELVASISRSGGSTSYADSVKGRFTISRDNAKNTVYLQMNSLKPEDTAVYYCAARSLSWTPYYYWGQGTQVTVSS | high polyreactivity
QVQLVESGGGLVQAGCSLRLSCAASGFIFWENGLGWYRQAPGKERELVAAISSGGGRTYYADSVKGRFTISRDNAKHTVYLQMNSLKPEDTAVYYCNRARYYREFDFWGQGTQVTVSS | high polyreactivity
QVQLVESGGGLVQAGGSLRLSCAASGRIFTTYAMGWYRQAPGKERELVAAITSGGGTYYADSVKGRFTISRDNAKNTVYLQMNSLKPEDTAVYYCNADYSADYYWYYYWGQGTQVTVSS | low polyreactivity
QVQLVESGGGLVQAGGSLRLSCAASGSTFQRYVIGWYRQAPGKERELVAAITRTGASTYYADSVKGRFTISRDNAKNTVYLQMNSLKPEDTAVYYCAARYRLGSYTYDYSGQGTQVTVSS | high polyreactivity
QVHLVESGGGLVQAGGSLRLSCAASGRTFGLYDMGWYRQAPGKERELVAGITRRGGRTYYADSVKGRFTISRDNAKNTVYLQMNSLKPEDTAVYYCAAGTIYLRHAQSPFDYWGQGTQVTVSS | high polyreactivity
QVQLVESGGGLVQAGGSLRLSCAASGLTFPTNAMGRYRQAHGKESQFVAAITSRGGTTYYADSVTGRFPISRDNAKNTVYLQMNSLKPEDTAVYYCAALSVTIDQSYRYGYWGQGTQVTVSS | low polyreactivity
QVQLVESGGGLVQAGGSLRLSCAASGFIFVRYAMGWYRQAPGKEREMVAAISSGGSTKYADSVKGRFTISRDNAKNTVYLQMNSLKPEDTAVYYCAADATPGRGVDYWGQGTQVTVSS | high polyreactivity
QVQLVESGGGLVQAGGSLRLSCAASGSIFYYNTMGWYRQAPGKERELVAAISWSGGSTSYADSVKGRFTISRDNAKNTVYLQMNSLKPEDTAVYYCAAKAVGLGKSWRGDDYWGQGTQVTVSS | low polyreactivity
QVQLVESGGGLVQAGGSLRLSCAASGRILSPYAMGWYRQAPGKERELVAVINTSGGRTYYADSVKGRFTISRDNAKNTVYLQMNSLKPEDTAVYYCAARERKVQYDYWGQGTQVTVSS | high polyreactivity
QVQLVESGGGLVQAGGSLRLSCAASGSIFYGYTMGWYRQEPGKERELVAAIRKSGGSTNYADSVKGRFTISRDNAKNTVYLQMNSLKPEDTAVFYCAAAYYRGRGYYWGQGTQVTESS | high polyreactivity
QVQLVESGGGLVQAGGSLRLSCAAYGYIFDHYAMGWYRQAPGKERELVAAINWSGGRTYYADSVKGRFTISRDNAKNTVYLQMNSLKPEDTAVYYCAAGGVSENDYWGQGTQVTVSS | high polyreactivity
QVQLVESGGGLVQAGGSLRLSCAASGSIFYVYAMGWYRQAPGKERELVAAITSSGTTNYADSVKGRLTISRDNAKNTVYLQMNSLKPEDTAVYYCAADPDSGQVPFDYWGQGTQVTVSS | low polyreactivity
QVQLVESGGGLVQAGGSLRLSCAASGSIFLPYAMGWYRQAPGKERELVATIRGRGGSTYYADSVKGRFTISRDNAKITVYLLMNSPKPEDTAVYYCAAKNGDRYARGYWGQGTQVTVSS | high polyreactivity
QVQLVESGGGLVQAGGSLRLSCAASGNIFPYYAMGWYRQAPGKERELVAAISGSGDRTYYADSVKGRFTIARDNAKNTVYLQMNSLKPEDTAVYYCAASRRYYGWYEYWGQGSQVTVSS | high polyreactivity
QVQLVESGGGLVQAGGSLRLSCAASGITFVRYAMGWYRQAPGKEREFVARISRSGASTYYADSVKGRFTISRDNAKNTVYLQMNSLKPEDTAVYYCNKVYISREDYWGQGTQVTVSS | high polyreactivity
QVQLVESGGGLVQAGGSLRLSCAASGPTNAMGWYRQAPGKERELVAAITKSGGSTYYADSVKGRFTISRDNAKNTVYLQMNSLKPEDTAVYYCALILRHTAYYYWGQGTQVTVSS | high polyreactivity
QVQLVESGGGLVQAGGSLRLSCAASGRIFRSNAMGWYRQAPGKERELVAVINSDDSTYYADSVKGRFTISRDNAKNTVYLQMNCLKPEDTAVYYCAAEPQYTRHMDSWGQGTQVTVSS | low polyreactivity
